Changes are numbered by the printed parent chain.

The target in assay [1] is SNAP-25134-197 peptide (human). As to the kind of experiment: SPR (BIAcore 3000); by Table 9 the KD of 1D3B8 is the lower one. (In SPR one partner is held on a chip, and binding of the other changes the refractive index at the surface.)
In assay [2] the target is SNAP-25134-197 peptide (human). As to the kind of experiment: SPR (BIAcore 3000), peptide amine-coupled to CM5, antibody as analyte, 1:1 fit.
Assay [3] deals with SNAP-25134-197 peptide (human). As to the kind of experiment: SPR (BIAcore 3000), peptide amine-coupled to CM5, antibody as analyte, 1:1 fit; first of two runs.
For assay [4], the target named is SNAP-25134-197 peptide (human). As to the kind of experiment: SPR (BIAcore 3000), peptide amine-coupled to CM5, antibody as analyte, 1:1 fit; second of two runs, other chip.

B1: α-SNAP-25 monoclonal antibody 1D3B8 (antibody, V domains shown)
VH: QVKLQESGAELVKPGASVKISCKASGYIFTDHALHWVRQKPEQGLEWIGYIFPGNGNIEYNEKFKGKATLTADKSSSTAYMQLNSLTSGDSAMYFCKKMDYWGQGTTVTVSS
VL: DVLMTQTPLSLPVSLGDQASISCRSSQSIVHSNGNTYLEWYLQKPGQSPKLLIYKVSNRFSGVPDRFSGSGSGTDFTLKISRVEAEDLGVYYCFQGSHVPPTFGAGTKLELKR
Turning to B1, the fold difference of the equilibrium disassociation constant against MC-6050 and MC-6053 in assay [1] was 10 fold. In assay [2], this molecule returned a Kd of 0.05 nM, a dissociation rate constant (koff) of 5.78e-05 s⁻¹ and a kon of 1.06e+06 M⁻¹ s⁻¹.

B2: α-SNAP-25 monoclonal antibody 2C9B10 (antibody, V domains shown)
VH: B1 VH with I28T, A33S, L34I, R38K, E42G, I51L, I58F, Q82H, G89E, M93V
VL: DIQMTQSPASLSASVGETVTITCRTTENIYSYFVWSQQRQGKSPQLRVYNAKSLAEGVPSSFNVSVSGTQFSLKINSLQPEDFGTYHCQHHYGTPYTFGGGTRLEIRR
Turning to B2, in assay [2], the Kd worked out at 27.1 nM, the koff amounted to 0.000311 s⁻¹ and the association rate constant (kon) is 11500 M⁻¹ s⁻¹.

B3: α-SNAP-25 monoclonal antibody 2E2A6 (antibody, V domains shown)
VH: QVQLQQSDAELVKPGASVKISCRASGYTFTDHSIHWVKQQPGQGLEWIGYIFPGNGNIEYNDKFKGKATLTADKSSGTAYMQLNSLTSEDSAVYFCKRMGYWGQGTSVTVSS
VL: DVLMTQTPLTLSVTIGQPASISCKSSQSLLYTNGKTYLTWLFQRPGQSPKRLIYLVSELDSGVPDRFSGSGSGTDFTLEITRVEAEDLGVYYCLQSAHFPFTFGSGTKLEIKR
With B3, in assay [3], the Kd is 0.09 nM, the off-rate (koff) was 0.000153 s⁻¹ and the kon came to 1.7e+06 M⁻¹ s⁻¹. Also, in assay [4], the Kd stood at 0.405 nM, the koff turned out to be 6.74e-05 s⁻¹ and the association rate constant (kon) came to 166000 M⁻¹ s⁻¹.

B4: α-SNAP-25 monoclonal antibody 3C1A5 (antibody, V domains shown)
VH: QVKLQESGAELVKPGASVKISCKASGYTFTDHSIHWVKQKPGQGLEWIGYLFPGNGNFEYNEKFKGKATLTADKSSSTVYMYLNSLTSEDSAVYFCKRMGYWGQGTTVTVSS
VL: B3 VL with L3V, Y31N, F42I, K50Q, E58K, E79K, T81S, A97S
As for B4, in assay [2], the Kd was determined as 1.33 nM, the dissociation rate constant (koff) came to 0.000288 s⁻¹ and the on-rate (kon) was 217000 M⁻¹ s⁻¹.

Usually Kd stands for a measure of binding affinity in units of concentration. A low value points to tighter binding. A word on the koff: it is a measure of how fast the partners let go of each other. Read a high koff as fast dissociation. Broadly, the kon is a measure of how fast the partners come together. Read a low kon as slow association.

Values taken from patent publication US20100203559A1.
